Biological target: Unmodified H3 (15–39) (Homo sapiens, matured GFP-type chromophore; AG itself is the assayed negative control. Accession is from memory; wild-type AG assumed rather than the monomeric version)
Assay: ITC

Kd: > 1000 µM
B1: Azami-Green (AG) protein alone (natural protein)
chain: MSVIKPEMKIKLCMRGTVNGHNFVIEGEGKGNPYEGTQILDLNVTEGAPLPFAYDILTTVFQYGNRAFTKYPADIQDYFKQTFPEGYHWERSMTYEDQGICTATSNISMRGDCFFYDIRFDGVNFPPNGPVMQKKTLKWEPSTEKMYVRDGVLKGDVNMALLLEGGGHYRCDFKTTYKAKKDVRLPDYHFVDHRIEILKHDKDYNKVKLYENAVARYSMLPSQAK

From article PMC9293779 (2022)
